Reference: publication PMC6023931 (Nature Communications, 2018)

Biological target: the molecule itself
Assay: SEC-MALS; samples at 1 mg/ml, Superdex 200 Increase 10/300, 20 mM Tris-HCl, 150 mM NaCl, 0.5 mM TCEP, pH 8.0; run in triplicates

Protein | stoichiometry N | binding result
ΔN-TLK2, unphosphorylated (N-terminal deletion, with coiled-coil region, kinase domain and C-tail) (domain or fragment, human, UniProt Q86UE8 191-772, looked up, Tousled-like kinase 2 (TLK2), human; lacks the 1-190 N-terminal fragment, holds the 191-450 region around the CC domains, the kinase domain and the C-tail; the text says once '1-191' and once '1-190' for the missing segment; also called TLK2L; source: E. coli NiCo21(DE3) or Rosetta (DE3) pLysS, co-expressed with lambda phosphatase, purified (Ni-NTA, monoQ, SEC)) TEHSCSSQKQISIQHRQTQSDLTIEKISALENSKNSDLEKKEGRIDDLLRANCDLRRQIDEQQKMLEKYKERLNRCVTMSKKLLIEKSKQEKMACRDKSMQDRLRLGHFTTVRHGASFTEQWTDGYAFQNLIKQQERINSQREEIERQRKMLAKRKPPAMGQAPPATNEQKQRKSKTNGAENETPSSGNTELKDTAPALGAHSLLRLTLAEYHEQEEIFKLRLGHLKKEEAEIQAELERLERVRNLHIRELKRIHNEDNSQFKDHPTLNDRYLLLHLLGRGGFSEVYKAFDLTEQRYVAVKIHQLNKNWRDEKKENYHKHACREYRIHKELDHPRIVKLYDYFSLDTDSFCTVLEYCEGNDLDFYLKQHKLMSEKEARSIIMQIVNALKYLNEIKPPIIHYDLKPGNILLVNGTACGEIKITDFGLSKIMDDDSYNSVDGMELTSQGAGTYWYLPPECFVVGKEPPKISNKVDVWSVGVIFYQCLYGRKPFGHNQSQQDILQENTILKATEVQFPPKPVVTPEAKAFIRRCLAYRKEDRIDVQQLACDPYLLPHIRKSVSTSSPAGAAIASTSGASNNSSSN | 2 | –
ΔN-TLK2-p, phosphorylated ΔN-TLK2 (domain or fragment, human, UniProt Q86UE8 191-772, looked up, autophosphorylated (not co-expressed with the lambda phosphatase); 41 phosphosites out of 67 possible Ser/Thr sites, mapped in Fig. 3c, Tousled-like kinase 2 (TLK2), human; lacks the 1-190 N-terminal fragment, holds the CC region, the kinase domain and the C-tail; also called active homodimer (ΔN-TLK2); source: E. coli NiCo21(DE3) or Rosetta (DE3) pLysS, without lambda phosphatase, purified (Ni-NTA, monoQ, heparin, SEC)) TEHSCSSQKQISIQHRQTQSDLTIEKISALENSKNSDLEKKEGRIDDLLRANCDLRRQIDEQQKMLEKYKERLNRCVTMSKKLLIEKSKQEKMACRDKSMQDRLRLGHFTTVRHGASFTEQWTDGYAFQNLIKQQERINSQREEIERQRKMLAKRKPPAMGQAPPATNEQKQRKSKTNGAENETPSSGNTELKDTAPALGAHSLLRLTLAEYHEQEEIFKLRLGHLKKEEAEIQAELERLERVRNLHIRELKRIHNEDNSQFKDHPTLNDRYLLLHLLGRGGFSEVYKAFDLTEQRYVAVKIHQLNKNWRDEKKENYHKHACREYRIHKELDHPRIVKLYDYFSLDTDSFCTVLEYCEGNDLDFYLKQHKLMSEKEARSIIMQIVNALKYLNEIKPPIIHYDLKPGNILLVNGTACGEIKITDFGLSKIMDDDSYNSVDGMELTSQGAGTYWYLPPECFVVGKEPPKISNKVDVWSVGVIFYQCLYGRKPFGHNQSQQDILQENTILKATEVQFPPKPVVTPEAKAFIRRCLAYRKEDRIDVQQLACDPYLLPHIRKSVSTSSPAGAAIASTSGASNNSSSN | – | binds
ΔN-TLK2-KD, kinase-dead ΔN-TLK2 (D613A) (domain or fragment, human, UniProt Q86UE8 191-772, looked up, Tousled-like kinase 2 (TLK2), human; ΔN-TLK2 (lacks the 1-190 N-terminal fragment) with the D613A mutation; also called ΔN-TLK-KD; kinase-dead homodimer; source: E. coli NiCo21(DE3) or Rosetta (DE3) pLysS, purified) TEHSCSSQKQISIQHRQTQSDLTIEKISALENSKNSDLEKKEGRIDDLLRANCDLRRQIDEQQKMLEKYKERLNRCVTMSKKLLIEKSKQEKMACRDKSMQDRLRLGHFTTVRHGASFTEQWTDGYAFQNLIKQQERINSQREEIERQRKMLAKRKPPAMGQAPPATNEQKQRKSKTNGAENETPSSGNTELKDTAPALGAHSLLRLTLAEYHEQEEIFKLRLGHLKKEEAEIQAELERLERVRNLHIRELKRIHNEDNSQFKDHPTLNDRYLLLHLLGRGGFSEVYKAFDLTEQRYVAVKIHQLNKNWRDEKKENYHKHACREYRIHKELDHPRIVKLYDYFSLDTDSFCTVLEYCEGNDLDFYLKQHKLMSEKEARSIIMQIVNALKYLNEIKPPIIHYDLKPGNILLVNGTACGEIKITAFGLSKIMDDDSYNSVDGMELTSQGAGTYWYLPPECFVVGKEPPKISNKVDVWSVGVIFYQCLYGRKPFGHNQSQQDILQENTILKATEVQFPPKPVVTPEAKAFIRRCLAYRKEDRIDVQQLACDPYLLPHIRKSVSTSSPAGAAIASTSGASNNSSSN | – | binds
